Source: patent publication US20220047684A1, “ENZYMES AND METHODS FOR PREVENTING AND TREATING […] IN ANIMALS” (Ecto Development Corporation, priority 2020, published 2022)

Key:
[1] = Characterisation of purified recombinant PytH2 carboxylesterase on p-nitrophenyl esters; assay type: biochemical
Procedure: Protein is a carboxylesterase from Sphingobium wenxiniae produced by PytH2 recombinant, expressed in E. coli BL21 (DE3) IUBMB: 3.1.1.88 CAS: 9016-18-6. The Chemical Composition of the carboxylesterase has Chemical purity: >90% buffer of 10 mM phosphate (pH 7.4), 2.7 mM KCI, 137 mM NaCI. Post translational procedures produced in a protease deficient E. coli strain and optimized for synthesis. The protein Appearance: clear, colorless solution:
Unit definition: One unit is defined as the amount of enzyme required to generate 1 μmol/min of 4-p-nitrophenol from 4-nitrophenyl-L-acetate at 30° C. and pH 7.4. Specific activity: 15±3 μ/mg
The enzyme is also deactivated by surfactant compounds such as SDS.
An esterase gene (PytH2) of Sphingobium wenxiniae containing an open reading frame (ORF) of 873 bp. The ORF of PytH2 was expressed in Escherichia coli, under the control of the promoter T7. […] E. coli BL21(DE3)/pET28 containing PytH2 expressed a novel 31.4-kDa protein corresponding to PytH2 in an N-terminal fusion with the His-tag peptide. The recombinant Sphingobium wenxiniae PytH2 protein was purified to electrophoretic homogeneity in a one-step affinity chromatography procedure on Ni-NTA Resin. The optimum pH and temperature of the purified enzyme were 7.0 and 37 degrees C., respectively. […] It was also active on pNP-butyrate(C(4) and pNPcaproate(C(6)).

[2] = pNPA method esterase (carboxylesterase) activity assay of spore productions; assay type: biochemical; conditions: 30° C. for 30 minutes, absorbance at 400
Procedure: Each of the identified enzymes were evaluated for esterase activity assay using pNBA method described below. Determination of carboxylesterase activity of cargo enzyme in Bacillus thuringiensis spore productions or of free enzyme productions. Three active carboxylesterases cloned into pBCm (Bt EO) and pET28a (E. coli BL21) systems: pnbA (B. subtilis), PytH2 (Sphingobium wenxiniae strain), and MsE1 (Methylobacterium sp). p-Nitrophenyl acetate was the substrate in assays for esterase activity. The hydrolysis of p-nitrophenyl acetate releases p-nitrophenol and acetate, and while p-nitrophenyl acetate is colorless, p-nitrophenol is yellow.
6 mg p-Nitrophenyl acetate (pNPA, CAS #830-03-5, MW: 181.1 g/mol) was weighed and dissolved in 1 mL methanol (CAS #67-56-1, MW: 32.04 g/mol). Stored at −20° C. and kept on ice when preparing reactions.
8.0 g sodium chloride (NaCl, CAS #7647-14-5, MW: 58.44 g/mol), 1.44 g sodium phosphate dibasic was dissolved (Na2HPO4, CAS #7558-79-4, MW: 141.96 g/mol), and 0.24 g potassium phosphate monobasic (KH2PO4, CAS #7778-77-0, 136.09 g/mol) in 800 mL DI H20, then adjust pH to 7.4 using hydrochloric acid (HCl, CAS #7647-01-0, MW: 36.46 g/mol). Make 100 mL aliquots and autoclave.
Esterase from rabbit liver (CAS #9016-18-6, Sigma E0887-powder). Store at −20° C. To prepare a stock dissolve 1 mg in 1 mL PBS, kept on ice when using.
Up to 1 mL spore production was pelleted up for 5 min at max speed. Supernatant was discarded without disturbing spore pellet and suspend pellet in ice-cold PBS. Spores kept suspended on ice until use.
The assay was run at 30° C. for 30 minutes. The assay was shaken continuously. Activity was read on (A) 400 BioTek Synergy/HTX microplate reader was used. The results of pNPA hydrolysis are shown in Table 3 depicting carboxylesterase enzyme activity for each of the five strains using pNPA hydrolysis.

[3] = Biological permethrin assay for esterase activity (activity units of esterases); assay type: biochemical; conditions: esterases used in reaction mix for scud assay
Procedure: A biological permethrin assay was performed for control, and three esterases pnbA, pytH2 and MsE1. The sensitivity of scuds (Hyalella Azteca) to permethrin was tested with three esterases pnbA, pytH2 and MsE1.
For control and each of the three esterases pnbA, pytH2 and MsE1, ten scuds were exposed to permethrin and one of pnbA, pytH2 or MsE1.
• 100 μL 50% MeOH in PBS • 0.2 μg/μL
(§1) • 37 degree C. • 18 hr • Shanking 1000 rpm Transferred 20 μL rxn mix [4 μg] to 100 mL [containing 10 scuds] At time, 24 h and 48 h the ten scuds were scored: A=Alive and Moving actively BA=Barely Alive—Difficulty swimming away; only legs are moving D=Dead—Not moving at all The results of which are shown in FIGS. 8 and 9.

scuds (Hyalella azteca) = experiment: Scud bioassay: scuds exposed to permethrin with or without enzyme, kill counts; assay type: in vivo; conditions: scuds exposed to permethrin plus degrading enzyme versus permethrin alone
Procedure: A standard of permethrin (CAS Number […]) was prepared and analyzed by HPLC as a control, then different concentrations of enzymatic solution were added to the standard to find an effective concentration (of pPytH2) needed to degrade the permethrin. After degradation was confirmed through HPLC analysis by the qualification and quantitation of permethrin hydrolysis byproducts, a bioassay was performed with crustaceans (scuds), who are also highly sensitive to pyrethroid toxicity. In the bioassay, scuds were exposed to two different environments. Permethrin was added to the first environment to get a scud kill count without the presence of the enzyme as a control and the next environment was evaluated by adding both permethrin and the degrading enzyme to the scud environment and kill counts were compared.
The next step was to test the enzymatic hydrolysis of permethrin in feline blood (cat serum). […] After the cat serum control was analyzed three different concentrations of the enzyme were introduced to the cat serum control and then analyzed by HPLC. […]
as §1

[4] = Order of pyrethroid hydrolysis efficiency of PytH2; assay type: biochemical; conditions: pyrethroid substrates
Text: Activity of the enzyme: In order of hydrolysis efficiency: transpermethrin>cis-permethrin>fenpropathrin>trans-cypermethrin>cis-cypermethrin>cyhalothrin>fenvalerate>deltamethrin>bifenthrin.

B1: E3: carboxylesterase PytH2 (pytH) from Sphingobium wenxiniae, amino acid SEQ. ID No. 3, DNA SEQ. ID No. 6; recombinant, His-tagged (protein, listed as Sphingobium wenxiniae)
chain: MTVTDIILIHGALNRGACYDAVVPLLEARGYRVHAPDLTGHTPGDGGHLSVVDMEHYTRPVADILARAEGQSILLGHSLGGASISWLAQHHYDKVAGLIYLTAVLTAPGITPETFVLPGEPNRGTPHALDLIQPVDEGRGLQADFSRLERLREVFMGDYPGEGMPPAEQFIQTQSTVPFGTPNPMEGRALEIPRLYEALDDVVIPIAVQRQMQKEFPGPVAVVSLPASHAPYYSMPERLAEAIADFADAPAEYRQTATKAGPDRPAGADGGRADRADLP
modifications: His tag
notes: ID No. 6; recombinant, His-tagged
cofactor requirement for activity [1]: does not require a cofactor
stability of the enzyme [1]: quite stable
activity after heat incubation ([1]; after incubation at 70° C.): inactive
effect of metal ions on the enzyme ([1]; metal ions, can recover activity): strongly inhibited
Specific activity ([1]; one unit = 1 μmol/min 4-p-nitrophenol from 4-nitrophenyl-L-acetate at 30° C. and pH 7.4): 15±3 μ/mg
substrate preference among pNP (p-nitrophenyl) esters: pNP-acetate (C(2)) ([1]; pNP-acetate): best substrate
activity on pNP-butyrate ([1]; pNP-butyrate(C(4))): active
activity on pNPcaproate ([1]; pNPcaproate(C(6))): active
optimum pH ([1]; purified enzyme): 7.0
optimum temperature ([1]; purified enzyme): 37 degrees C.
effect of surfactant compounds on the enzyme ([1]; surfactant compounds such as SDS): deactivated
pNPA hydrolysis [2]: 26.3 ± 0.9 nmol pNPA/min/1E+8 spores
Activity units [3]: 31.6
effect on permethrin in scud bioassay (scuds (Hyalella azteca)): hydrolyzed the toxic permethrin molecule and degraded permethrin
order of hydrolysis efficiency [4]: transpermethrin>cis-permethrin>fenpropathrin>trans-cypermethrin>cis-cypermethrin>cyhalothrin>fenvalerate>deltamethrin>bifenthrin
